Data published in patent US8841272B2, “Double-stranded RNA-based nanoparticles for insect gene silencing” (Kansas State University Research Foundation, priority 2011, dated 2014).

B1: dsAgCHS1-f1: dsRNA synthesized using residues 2,267 to 2,635 of SEQ ID NO: 1 as the template (nucleic acid, listed as Anopheles gambiae)
DNA: TGAAACGCACATCTTCTTCGATGACGCGTTCGAAATTTCGGACCACAGCGACGAGGACATTCAGTGTAATCGGTTCGTGAAGATTCTTGTCGACACCATCGACGAAGCTGCCTCGGAAGTGCATCAGACCAACATTCGATTGAGACCGCCCAAAAAGTACCCAACACCGTACGGTGGACGACTGGTGTGGACGCTGCCCGGTAAAACGAAGATGATTGCCCACCTGAAGGACAAGGATCGCATCCGGCACCGTAAGCGTTGGTCTCAGGTCATGTACATGTACTATCTGCTCGGCCACCGGCTGATGGAGCTGCCGATTTCCGTCGACCGTAAGGAGGTGATGGCGGAAAACACCTACCTGCTGACGCT
modifications: double-stranded RNA
B2: dsAgCHS1-f2: dsRNA synthesized using residues 3,812 to 4,202 of SEQ ID NO: 1 as the template (nucleic acid, listed as Anopheles gambiae)
DNA: CAAAACGACGGACGAGAAGGCGCAGCTGATTCACATTGCCGATGCGCTGGACGCCATTACGAAGAAGATTGAGAATCTGGAAAAGCACATCGACCCGCACGGACATCATACGCGCAAGCGCACTGCGTCGGCGGGGTCGAAGGATCACCATCTCGGCTCGGTGGCGGAGGATACGGAGGACGATGATGAGGATGAAGATTCGGAGACTTCGACGCTGCAGCGCGACGAGCGCGACTTCCTCACCAACCCGTACTGGATCGAGGATCCGGATCTGAAGAAGGGCGAGGTGGACTTTATTTCCAGCACCGAGATCCAGTTCTGGAAGGACCTGATCGATAAGTACCTATACCCGATCGATCAAAACAAGGAGGAACAGGCACGTATTGCGCAC
modifications: double-stranded RNA
B3: dsAgCHS2-f1: dsRNA synthesized using residues 3,846 to 4,235 of SEQ ID NO: 3 as the template (nucleic acid, listed as Anopheles gambiae)
DNA: ACACATCGAGTGGTGGTTCAACGTGAAGAACAAGATCAGCTTTGACGAAAGCACGGTCGAGATCATGATCCGGCGCGAGTACCTGGAGCTCGAACCGATCGGTTTGGTGTTTGTGATGTTCTTCGGTTTGATTCTCATCATTCAGTTTGTGGCCATGCTGATGCATCGGTTCGGTACCATCTCCCAGATTCTTGCCTCCACCGAGCTGAACTGGTACTGTTCGAAGAAGGCTAAGGATATGTCACTCGATGCGGAACTGCGCGAGAATGCGGTCGAAATTGCACGTCGACTGCAGCGCCCCAAACCGCAGTGGGACGAGGAAGATCTAGAGGACGAGCAGAAAGCTATTGGACGTCGCGACACGATCCATCGCATTCTCTACCAGCACAA
modifications: double-stranded RNA
B4: dsAgCHS2-f2: dsRNA synthesized using residues 3,331 to 3,719 of SEQ ID NO: 3 as the template (nucleic acid, listed as Anopheles gambiae)
DNA: GCCAGCGCCGAAAAGGAGCAAATCGCACAAATTGCGGCATCGCTCAGCGAAATAAGTGTAAAAATGAAGGCACTGGAAATGAAATTAACCGGCAACGTCAGCGTAATGAGATCAGACGACGAAGATGATGACATCGGTAGTCTCGATATGCATCGTCCGGAAGGTAACCGTGGCCCATCCTCGCCATCCTCCACCTCGGGCGCCGCCTCCCCGATCCAGACGGTGAAAAATGATTCCCTCGAAGAGCCCGAGAAGCAGATTAACTATCTGCCGGATTGGTTGTACGACGTGGATTTGAAAAACGGCGACACTGAGACGATCTCCGCCTCGGAGGAGCAATTCTGGATTGAGCTGATCGAGAAGTATCTGAAGCCGCTCGATCTGTCGGA
modifications: double-stranded RNA

Tested on: AgCHS1
Assay: qPCR of AgCHS1 transcript level in mosquito larvae after larval feeding
Format: in vivo, Anopheles gambiae
Conditions: 3rd-instar larvae fed once a day for 4 days on dsRNA nanoparticles, vs GFP dsRNA nanoparticles
Description: (§1) A group of 15-20 3rd-instar mosquito larvae was transferred into a 500-ml glass beaker containing 100 ml of deionized water. One sixth of the gel slices that were prepared from 32 μg of dsRNA, as described above, were added into each beaker. Approximately an equal amount of the gel slices was used to feed the larvae once a day for a total of four days. Any potential phenotypic changes were visually examined in the larvae during the experiment. The transcript levels of AgCHS1 or AgCHS2, chitin contents, and other phenotypic changes were assessed in the larvae at the end of the experiment (i.e., day 4).
(§2) Total RNA was extracted from mosquito larvae with TRIzol reagent (Invitrogen, Carlsbad, Calif.) and 3.5 μg of total RNA was used for first strand cDNA synthesis using the First Strand cDNA Synthesis kit (Fermentas, Glen Burnie, Md.). The first strand cDNA was then used as template for PCR and qPCR. A gene encoding ribosomal protein S3, AgRPS3, was used as an internal reference. PCR was performed with a PCR Master Mix kit (Fermentas). The qPCR was performed using a Maxima SYBR Green qPCR Master Mix (Fermentas), and the 2^−ΔΔCT method was used to calculate the relative levels of AgCHS1 and AgCHS2 transcripts in the mosquito larvae fed on the food containing the AgCHS1 or AgCHS2 dsRNA-based nanoparticles as compared with the control larvae fed on the food containing the GFP dsRNA-based nanoparticles.
(§3) For data obtained from qPCR, relative expression levels in percentage were calculated by dividing the relative expression value (REV) of each gene in the AgCHS dsRNA-treated larvae by the REV of the same gene in the GFP dsRNA-treated larvae. After the percentage data of the relative AgCHS expression were transformed using arcsine square root transformation, the transformed data were subjected to ANOVA followed by Fisher's least significant difference (LSD) multiple comparisons to separate the means among the treatments using ProStat software (Poly Software International, Pearl River, N.Y.).

Molecule | repression of the transcript level of AgCHS1
B1 | 62.8%
B2 | 52.4%
B3 | none of these AgCHS2 dsRNAs repressed
B4 | none of these AgCHS2 dsRNAs repressed

Tested on: AgCHS2
Assay: qPCR of AgCHS2 transcript level in mosquito larvae after larval feeding
Format: in vivo, Anopheles gambiae
Conditions: 3rd-instar larvae fed once a day for 4 days on dsRNA nanoparticles, vs GFP dsRNA nanoparticles
Description: as §1, §2, §3

Molecule | repression of the transcript level of AgCHS2 [%]
B1 | 48.4
B2 | 57.9
B3 | 63.4
B4 | 48.8
